Experimental data taken from publication PMC3504642.

Assays:
[1] = biological target: FcεRIα (Homo sapiens) (UniProt P12319); details: cited from earlier work
[2] = biological target: AF488-Fc (C328A/K367C IgE-Fc Cε3-Cε4 protein labeled with Alexa Fluor 488 at residue 367); assay: other fluorescence titration

Kd [2] [nM] | Substance | Kd [1] [nM]
 | IgE Fc Fc (Cε2-Cε4) (from UniProt P01854) | < 1
22 | soluble FcεRI α-chain ectodomain (from UniProt P12319 26-205) (receptor) | 
